Data on 125 sequences can be found in the supplement of paper PMC9112550, “Optimization of the antimicrobial peptide Bac7 by deep mutational scanning” (BMC Biology, 2022).
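Note: peptides expressed intracellularly from a pBAD plasmid library in pooled LB shake-flask culture, induced with 0.3% L-arabinose, DNA abundance read by NGS, three biological replicates, DESeq2 with apeglm shrinkage.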

The subject of this data set is Escherichia coli TOP10. Description: shrunken log2 fold change of peptide-encoding DNA abundance (4.5 h post-induction vs induction); higher = less antimicrobial activity (less host growth inhibition). The settings on record: time post-induction: 4.5 h; library: site-saturation at positions 5, 18, 19, 20.
RRIRKRPPRLPRPRPRPCECPRP: the “shrunken log2 fold change” value came out at 0.62. Under RRIRHRPPRLPRPRPRPNILPRP stands -0.448; under RRIRPRPPRLPRPRPRPTLFPRP, 0.2.

Turning to RRIRVRPPRLPRPRPRPCHQPRP, the “shrunken log2 fold change” value is -0.483. With RRIRCRPPRLPRPRPRPRYIPRP, the “shrunken log2 fold change” value was -0.035. Take RRIRIRPPRLPRPRPRPRNRPRP: the “shrunken log2 fold change” value is -0.125. The figure for RRIRHRPPRLPRPRPRPYYDPRP is -0.0623; for RRIRHRPPRLPRPRPRPSPMPRP it is -0.418. Under RRIRWRPPRLPRPRPRPIGVPRP stands 0.0389.

Consider RRIRSRPPRLPRPRPRPKYQPRP, for which the “shrunken log2 fold change” value was -0.157. Under RRIRWRPPRLPRPRPRPIICPRP stands -0.523. For RRIRNRPPRLPRPRPRPSKKPRP, the “shrunken log2 fold change” value was -0.0392.

Regarding RRIRDRPPRLPRPRPRPKTFPRP, the “shrunken log2 fold change” value was 0.00972. Regarding RRIRERPPRLPRPRPRPGVLPRP, the “shrunken log2 fold change” value was -0.177. The figure for RRIRIRPPRLPRPRPRPTMRPRP is 0.553; for RRIRPRPPRLPRPRPRPHQEPRP it is 4.12; for RRIRERPPRLPRPRPRPSGNPRP it is -0.636. For the sequence RRIRSRPPRLPRPRPRPIAIPRP, the “shrunken log2 fold change” value was -0.0732.

Turning to RRIRVRPPRLPRPRPRPATKPRP, the “shrunken log2 fold change” value worked out at 0.153. RRIRQRPPRLPRPRPRPFKFPRP: the “shrunken log2 fold change” value was -0.00873.

For the sequence RRIRIRPPRLPRPRPRPQFFPRP, the “shrunken log2 fold change” value was -0.304. The figure for RRIRGRPPRLPRPRPRPIALPRP is 0.16; for RRIRQRPPRLPRPRPRPHKVPRP it is -0.481.

RRIRTRPPRLPRPRPRPAEEPRP: the “shrunken log2 fold change” value was 0.0505. For the sequence RRIRTRPPRLPRPRPRPQMEPRP, the “shrunken log2 fold change” value is 0.00225. The figure for RRIRQRPPRLPRPRPRPEHCPRP is -0.199; for RRIRRRPPRLPRPRPRPDFRPRP it is 0.118. On to RRIRWRPPRLPRPRPRPFSYPRP, for which the “shrunken log2 fold change” value was -0.203. Under RRIRLRPPRLPRPRPRPMQHPRP stands 0.256; under RRIRERPPRLPRPRPRPNINPRP, -1.05; under RRIRWRPPRLPRPRPRPTCVPRP, 0.145.

For the sequence RRIRRRPPRLPRPRPRPFYIPRP, the “shrunken log2 fold change” value is -0.039. Consider RRIRIRPPRLPRPRPRPDARPRP, for which the “shrunken log2 fold change” value turned out to be 0.262. Under RRIRLRPPRLPRPRPRPMARPRP stands 0.0339; under RRIRHRPPRLPRPRPRPENKPRP, -0.639; under RRIRARPPRLPRPRPRPGCFPRP, 0.96. Consider RRIRDRPPRLPRPRPRPVPDPRP, for which the “shrunken log2 fold change” value is -0.0933. The figure for RRIRIRPPRLPRPRPRPLHAPRP is 0.00821; for RRIRYRPPRLPRPRPRPNKLPRP it is -0.987. Under RRIRDRPPRLPRPRPRPRFTPRP stands 0.21; under RRIRYRPPRLPRPRPRPHRYPRP, -0.41; under RRIRYRPPRLPRPRPRPDQIPRP, 0.0304.

As to RRIRERPPRLPRPRPRPSWFPRP, the “shrunken log2 fold change” value is -0.589.

For the sequence RRIRYRPPRLPRPRPRPGPDPRP, the “shrunken log2 fold change” value was determined as 0.184.

As to RRIRSRPPRLPRPRPRPGNWPRP, the “shrunken log2 fold change” value is -0.0906.

Take RRIRSRPPRLPRPRPRPWYCPRP: the “shrunken log2 fold change” value was 0.017. The figure for RRIRFRPPRLPRPRPRPMRQPRP is 0.0953; for RRIRNRPPRLPRPRPRPECFPRP it is 0.0864. For the sequence RRIRKRPPRLPRPRPRPTIQPRP, the “shrunken log2 fold change” value is -0.0129. Under RRIRKRPPRLPRPRPRPCHEPRP stands 0.00408; under RRIRFRPPRLPRPRPRPINPPRP, -1.08; under RRIRFRPPRLPRPRPRPRINPRP, -0.314. For the sequence RRIRHRPPRLPRPRPRPNNIPRP, the “shrunken log2 fold change” value was -1.2. Under RRIRDRPPRLPRPRPRPMERPRP stands -0.0122; under RRIRRRPPRLPRPRPRPHYDPRP, -0.124. Under RRIRGRPPRLPRPRPRPQYFPRP stands -0.141. Take RRIRCRPPRLPRPRPRPLIDPRP: the “shrunken log2 fold change” value was -0.301. The figure for RRIRLRPPRLPRPRPRPMKEPRP is -0.019; for RRIRPRPPRLPRPRPRPTDNPRP it is -0.134. Take RRIRPRPPRLPRPRPRPAYAPRP: the “shrunken log2 fold change” value came to 0.16.

For RRIRRRPPRLPRPRPRPDNWPRP, the “shrunken log2 fold change” value was 0.000556. For the sequence RRIRQRPPRLPRPRPRPDIKPRP, the “shrunken log2 fold change” value was -0.0227. As to RRIRSRPPRLPRPRPRPYEVPRP, the “shrunken log2 fold change” value amounted to 0.07.

For the sequence RRIRNRPPRLPRPRPRPECTPRP, the “shrunken log2 fold change” value worked out at 0.00282. Under RRIRPRPPRLPRPRPRPPTYPRP stands -0.204; under RRIRLRPPRLPRPRPRPQHPPRP, -0.132. With RRIRWRPPRLPRPRPRPCPNPRP, the “shrunken log2 fold change” value is -0.184. The figure for RRIRKRPPRLPRPRPRPTPLPRP is 0.848; for RRIRARPPRLPRPRPRPKRYPRP it is 0.159; for RRIRIRPPRLPRPRPRPRTVPRP it is -0.197. As to RRIRIRPPRLPRPRPRPVWWPRP, the “shrunken log2 fold change” value came to 0.0779. As to RRIRSRPPRLPRPRPRPDLVPRP, the “shrunken log2 fold change” value turned out to be 0.0452. Under RRIRARPPRLPRPRPRPYVSPRP stands -0.0383; under RRIRYRPPRLPRPRPRPHQGPRP, -0.142.

Take RRIRRRPPRLPRPRPRPYFLPRP: the “shrunken log2 fold change” value is -0.542. In the case of RRIRNRPPRLPRPRPRPQPQPRP, the “shrunken log2 fold change” value is -0.0877. Under RRIRWRPPRLPRPRPRPVMHPRP stands -0.119. As for RRIRWRPPRLPRPRPRPQEWPRP, the “shrunken log2 fold change” value worked out at 0.248. The figure for RRIRQRPPRLPRPRPRPMVNPRP is -0.2. RRIRLRPPRLPRPRPRPAVIPRP: the “shrunken log2 fold change” value is -0.339.

Regarding RRIRCRPPRLPRPRPRPHWEPRP, the “shrunken log2 fold change” value was -0.132. Under RRIRMRPPRLPRPRPRPYTFPRP stands -0.0434; under RRIRSRPPRLPRPRPRPRRLPRP, 0.193; under RRIRHRPPRLPRPRPRPYMSPRP, -0.236. As for RRIRCRPPRLPRPRPRPMKEPRP, the “shrunken log2 fold change” value is -0.18.

With RRIRPRPPRLPRPRPRPAVFPRP, the “shrunken log2 fold change” value worked out at 0.373.

Take RRIRGRPPRLPRPRPRPAGRPRP: the “shrunken log2 fold change” value is 0.692. As to RRIRPRPPRLPRPRPRPTEVPRP, the “shrunken log2 fold change” value was -0.342. The figure for RRIRVRPPRLPRPRPRPNCKPRP is -0.368.

For the sequence RRIRQRPPRLPRPRPRPVPPPRP, the “shrunken log2 fold change” value stood at 0.536.

As to RRIRRRPPRLPRPRPRPAHDPRP, the “shrunken log2 fold change” value came to 0.873.

In the case of RRIRGRPPRLPRPRPRPGWTPRP, the “shrunken log2 fold change” value was determined as 0.708. Consider RRIRNRPPRLPRPRPRPKYGPRP, for which the “shrunken log2 fold change” value was -0.174. Under RRIRKRPPRLPRPRPRPNTMPRP stands -0.209. Under RRIRVRPPRLPRPRPRPPANPRP stands 0.3. Regarding RRIRIRPPRLPRPRPRPINKPRP, the “shrunken log2 fold change” value was -1.11.

As for RRIRRRPPRLPRPRPRPSHLPRP, the “shrunken log2 fold change” value was -0.21. The figure for RRIRTRPPRLPRPRPRPWRNPRP is -0.253.

As for RRIRQRPPRLPRPRPRPKCMPRP, the “shrunken log2 fold change” value was -0.551. With RRIRVRPPRLPRPRPRPGNWPRP, the “shrunken log2 fold change” value stood at 0.0971.

Regarding RRIRHRPPRLPRPRPRPAHNPRP, the “shrunken log2 fold change” value is -0.366. For RRIRCRPPRLPRPRPRPHHHPRP, the “shrunken log2 fold change” value was -0.815. With RRIRIRPPRLPRPRPRPEWCPRP, the “shrunken log2 fold change” value was found to be 0.0249.

For the sequence RRIRYRPPRLPRPRPRPCFVPRP, the “shrunken log2 fold change” value was -1.09. RRIRVRPPRLPRPRPRPMWRPRP: the “shrunken log2 fold change” value amounted to 0.127. Turning to RRIRPRPPRLPRPRPRPHYGPRP, the “shrunken log2 fold change” value is -0.569. In the case of RRIRFRPPRLPRPRPRPSGVPRP, the “shrunken log2 fold change” value turned out to be 0.0832. In the case of RRIRIRPPRLPRPRPRPSHMPRP, the “shrunken log2 fold change” value was -0.425.

In the case of RRIRCRPPRLPRPRPRPISAPRP, the “shrunken log2 fold change” value is -0.142. Under RRIRTRPPRLPRPRPRPDCPPRP stands -0.245; under RRIRVRPPRLPRPRPRPFQVPRP, -0.0887; under RRIRDRPPRLPRPRPRPPRAPRP, 1.1. As for RRIRNRPPRLPRPRPRPWGFPRP, the “shrunken log2 fold change” value is -0.103. As for RRIRMRPPRLPRPRPRPSITPRP, the “shrunken log2 fold change” value was -0.0273.

Regarding RRIRVRPPRLPRPRPRPWIPPRP, the “shrunken log2 fold change” value is -0.513.

Regarding RRIRERPPRLPRPRPRPIMNPRP, the “shrunken log2 fold change” value is -1.02.

In the case of RRIRARPPRLPRPRPRPYNRPRP, the “shrunken log2 fold change” value was -0.186. The figure for RRIRTRPPRLPRPRPRPLQDPRP is 0.00698; for RRIRKRPPRLPRPRPRPFNMPRP it is 0.0229. In the case of RRIRMRPPRLPRPRPRPQNIPRP, the “shrunken log2 fold change” value is -0.726. With RRIRKRPPRLPRPRPRPGLHPRP, the “shrunken log2 fold change” value came out at 0.0334. The figure for RRIRHRPPRLPRPRPRPYYCPRP is -0.541; for RRIRTRPPRLPRPRPRPERSPRP it is 0.104; for RRIRSRPPRLPRPRPRPMRRPRP it is 0.732. Consider RRIRNRPPRLPRPRPRPEDRPRP, for which the “shrunken log2 fold change” value amounted to 0.0787.
